Experimental data as given in IntAct's records for PubMed 29892012.

B1: Kinetochore protein NDC80 homolog (Homo sapiens), O14777 (parent)
chain: MKRSSVSSGGAGRLSMQELRSQDVNKQGLYTPQTKEKPTFGKLSINKPTSERKVSLFGKRTSGHGSRNSQLGIFSSSEKIKDPRPLNDKAFIQQCIRQLCEFLTENGYAHNVSMKSLQAPSVKDFLKIFTFLYGFLCPSYELPDTKFEEEVPRIFKDLGYPFALSKSSMYTVGAPHTWPHIVAALVWLIDCIKIHTAMKESSPLFDDGQPWGEETEDGIMHNKLFLDYTIKCYESFMSGADSFDEMNAELQSKLKDLFNVDAFKLESLEAKNRALNEQIARLEQEREKEPNRLESLRKLKASLQGDVQKYQAYMSNLESHSAILDQKLNGLNEEIARVELECETIKQENTRLQNIIDNQKYSVADIERINHERNELQQTINKLTKDLEAEQQKLWNEELKYARGKEAIETQLAEYHKLARKLKLIPKGAENSKGYDFEIKFNPEAGANCLVKYRAQVYVPLKELLNETEEEINKALNKKMGLEDTLEQLNAMITESKRSVRTLKEEVQKLDDLYQQKIKEAEEEDEKCASELESLEKHKHLLESTVNQGLSEAMNELDAVQREYQLVVQTTTEERRKVGNNLQRLLEMVATHVGSVEKHLEEQIAKVDREYEECMSEDLSENIKEIRDKYEKKATLIKSSEE
partner: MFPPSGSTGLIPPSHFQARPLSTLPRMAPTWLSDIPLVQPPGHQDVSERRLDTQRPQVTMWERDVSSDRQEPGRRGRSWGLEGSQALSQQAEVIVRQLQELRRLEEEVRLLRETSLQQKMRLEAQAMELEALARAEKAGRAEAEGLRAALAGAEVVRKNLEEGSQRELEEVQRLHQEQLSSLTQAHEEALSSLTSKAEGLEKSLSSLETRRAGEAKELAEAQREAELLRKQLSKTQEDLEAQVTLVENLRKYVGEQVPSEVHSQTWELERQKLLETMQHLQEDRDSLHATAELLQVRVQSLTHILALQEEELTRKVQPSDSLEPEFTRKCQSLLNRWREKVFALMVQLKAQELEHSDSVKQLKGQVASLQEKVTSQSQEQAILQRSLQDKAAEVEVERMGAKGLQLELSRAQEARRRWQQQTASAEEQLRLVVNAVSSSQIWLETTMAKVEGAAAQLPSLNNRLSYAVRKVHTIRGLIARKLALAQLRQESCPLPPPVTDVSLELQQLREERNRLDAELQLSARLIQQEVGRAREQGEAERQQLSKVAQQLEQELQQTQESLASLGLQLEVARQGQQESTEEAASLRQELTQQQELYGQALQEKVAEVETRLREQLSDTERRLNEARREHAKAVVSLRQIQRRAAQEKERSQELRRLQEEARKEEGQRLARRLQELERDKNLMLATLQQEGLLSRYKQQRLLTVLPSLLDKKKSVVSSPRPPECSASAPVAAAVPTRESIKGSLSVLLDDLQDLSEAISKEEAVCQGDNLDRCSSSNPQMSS
B2: Casein kinase II subunit alpha (Homo sapiens), P68400 (parent)
chain: MSGPVPSRARVYTDVNTHRPREYWDYESHVVEWGNQDDYQLVRKLGRGKYSEVFEAINITNNEKVVVKILKPVKKKKIKREIKILENLRGGPNIITLADIVKDPVSRTPALVFEHVNNTDFKQLYQTLTDYDIRFYMYEILKALDYCHSMGIMHRDVKPHNVMIDHEHRKLRLIDWGLAEFYHPGQEYNVRVASRYFKGPELLVDYQMYDYSLDMWSLGCMLASMIFRKEPFFHGHDNYDQLVRIAKVLGTEDLYDYIDKYNIELDPRFNDILGRHSRKRWERFVHSENQHLVSPEALDFLDKLLRYDHQSRLTAREAMEHPYFYTVVKDQARMGSSSMPGGSTPVSSANMMSGISSVPTPSPLGPLAGSPVIAAANPLGMPVPAAAGAQQ
partner: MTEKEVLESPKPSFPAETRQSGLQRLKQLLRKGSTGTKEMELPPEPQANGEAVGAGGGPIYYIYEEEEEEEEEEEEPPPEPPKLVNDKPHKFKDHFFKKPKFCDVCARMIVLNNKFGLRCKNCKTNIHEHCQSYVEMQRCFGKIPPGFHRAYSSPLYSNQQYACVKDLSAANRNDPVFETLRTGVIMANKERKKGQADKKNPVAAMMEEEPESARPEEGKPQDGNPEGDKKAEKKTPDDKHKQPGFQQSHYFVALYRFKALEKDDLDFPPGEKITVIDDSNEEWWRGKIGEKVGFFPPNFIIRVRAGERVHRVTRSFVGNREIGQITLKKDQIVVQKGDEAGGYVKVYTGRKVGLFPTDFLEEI
B3: Zinc finger protein 64 (Homo sapiens), Q9NTW7 (parent)
chain: MNASSEGESFAGSVQIPGGTTVLVELTPDIHICGICKQQFNNLDAFVAHKQSGCQLTGTSAAAPSTVQFVSEETVPATQTQTTTRTITSETQTITVSAPEFVFEHGYQTYLPTESNENQTATVISLPAKSRTKKPTTPPAQKRLNCCYPGCQFKTAYGMKDMERHLKIHTGDKPHKCEVCGKCFSRKDKLKTHMRCHTGVKPYKCKTCDYAAADSSSLNKHLRIHSDERPFKCQICPYASRNSSQLTVHLRSHTASELDDDVPKANCLSTESTDTPKAPVITLPSEAREQMATLGERTFNCCYPGCHFKTVHGMKDLDRHLRIHTGDKPHKCEFCDKCFSRKDNLTMHMRCHTSVKPHKCHLCDYAAVDSSSLKKHLRIHSDERPYKCQLCPYASRNSSQLTVHLRSHTGDTPFQCWLCSAKFKISSDLKRHMIVHSGEKPFKCEFCDVRCTMKANLKSHIRIKHTFKCLHCAFQGRDRADLLEHSRLHQADHPEKCPECSYSCSSAAALRVHSRVHCKDRPFKCDFCSFDTKRPSSLAKHVDKVHRDEAKTENRAPLGKEGLREGSSQHVAKIVTQRAFRCETCGASFVRDDSLRCHKKQHSDQSENKNSDLVTFPPESGASGQLSTLVSVGQLEAPLEPSQDL
partner: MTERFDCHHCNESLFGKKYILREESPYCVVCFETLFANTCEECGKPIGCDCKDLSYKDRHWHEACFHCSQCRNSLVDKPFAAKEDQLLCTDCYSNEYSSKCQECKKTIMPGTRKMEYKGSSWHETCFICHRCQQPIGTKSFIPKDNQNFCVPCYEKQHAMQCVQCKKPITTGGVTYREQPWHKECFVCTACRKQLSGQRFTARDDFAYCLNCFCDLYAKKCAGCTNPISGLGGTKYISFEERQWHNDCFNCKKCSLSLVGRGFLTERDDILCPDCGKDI
B4: Kinetochore protein NDC80 homolog (Homo sapiens), O14777 (parent)
chain: B1 chain
partner: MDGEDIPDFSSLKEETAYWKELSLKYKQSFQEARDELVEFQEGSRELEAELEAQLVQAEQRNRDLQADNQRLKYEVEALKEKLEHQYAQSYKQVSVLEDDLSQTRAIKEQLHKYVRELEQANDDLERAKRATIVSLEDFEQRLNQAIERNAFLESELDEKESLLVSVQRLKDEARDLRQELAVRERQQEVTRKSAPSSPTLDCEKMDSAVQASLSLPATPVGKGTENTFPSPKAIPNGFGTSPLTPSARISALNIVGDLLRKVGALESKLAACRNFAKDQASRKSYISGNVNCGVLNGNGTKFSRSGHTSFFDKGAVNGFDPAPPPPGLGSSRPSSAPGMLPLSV

Variants of: B1
Details: with cchcr_human CCHCR1, Q8TD31

| Variant | effect of a mutation on the interaction |
| --- | --- |
| K288E | with no effect |

Variants of: B2
Details: with stac3_human STAC3, Q96MF2

| Variant | effect of a mutation on the interaction |
| --- | --- |
| K198R | with no effect |

Variants of: B3
Details: with fhl2_human FHL2, Q14192

| Variant | effect of a mutation on the interaction |
| --- | --- |
| D227E | with no effect |

Variants of: B4
Details: with ndel1_human NDEL1, Q9GZM8

| Variant | effect of a mutation on the interaction |
| --- | --- |
| K288E | with no effect |
